# From PMC5787697, “Transcriptome-wide identification of the RNA-binding landscape of the chromatin-associated protein PARP1 reveals functions in RNA biogenesis”
# How the values were obtained:
# PARP1-ΔBRCT [1] = biological target: T1, PARP1-ΔBRCT (human, UniProt P09874 1-1014, del367-494); test: EMSA; Table 2 value not in material; 25 mM Tris pH 7.5, 75 mM NaCl, 50 mM arginine, 0.1 mM TCEP, 0.1 ug/ul BSA, room temperature 30 min; 0.05 uM probe, 0-2.5 uM protein; native 10% PAGE in TBE; conditions: protein: recombinant; tags: His; chain copies: 2; label: 5'-32P; single strand
# T1 sequence (P09874 other isoform, or with tags, fused parts or gaps del367-494 | mutant): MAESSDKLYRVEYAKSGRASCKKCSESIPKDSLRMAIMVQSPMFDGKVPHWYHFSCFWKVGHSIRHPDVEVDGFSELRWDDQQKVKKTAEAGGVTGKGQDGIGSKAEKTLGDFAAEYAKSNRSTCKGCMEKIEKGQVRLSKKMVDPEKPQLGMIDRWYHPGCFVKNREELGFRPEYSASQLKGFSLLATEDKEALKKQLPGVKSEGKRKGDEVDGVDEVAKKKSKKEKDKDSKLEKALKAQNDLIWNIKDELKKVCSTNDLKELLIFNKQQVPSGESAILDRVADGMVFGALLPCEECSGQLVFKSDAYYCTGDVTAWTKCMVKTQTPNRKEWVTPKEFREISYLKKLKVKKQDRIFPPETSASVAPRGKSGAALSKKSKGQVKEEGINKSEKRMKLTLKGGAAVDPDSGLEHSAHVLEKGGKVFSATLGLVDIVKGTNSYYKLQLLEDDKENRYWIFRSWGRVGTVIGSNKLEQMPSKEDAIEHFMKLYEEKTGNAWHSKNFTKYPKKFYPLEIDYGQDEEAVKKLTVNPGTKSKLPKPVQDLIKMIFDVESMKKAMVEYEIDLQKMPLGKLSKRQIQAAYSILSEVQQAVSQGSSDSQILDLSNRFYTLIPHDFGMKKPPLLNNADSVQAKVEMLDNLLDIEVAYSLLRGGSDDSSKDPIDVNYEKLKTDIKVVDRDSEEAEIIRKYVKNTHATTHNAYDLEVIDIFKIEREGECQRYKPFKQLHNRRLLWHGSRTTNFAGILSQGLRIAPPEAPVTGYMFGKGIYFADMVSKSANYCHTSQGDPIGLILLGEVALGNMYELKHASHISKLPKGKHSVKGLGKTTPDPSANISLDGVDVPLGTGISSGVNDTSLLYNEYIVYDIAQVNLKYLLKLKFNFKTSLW
# PARP1-ΔWGR [2] = biological target: T2, PARP1-ΔWGR (human, UniProt P09874 1-1014, del518-654); test: EMSA; affinity not significantly changed from FL; Table 2 value not in material; 25 mM Tris pH 7.5, 75 mM NaCl, 50 mM arginine, 0.1 mM TCEP, 0.1 ug/ul BSA, room temperature 30 min; 0.05 uM probe, 0-2.5 uM protein; native 10% PAGE in TBE; conditions: protein: recombinant; tags: His; chain copies: 2; label: 5'-32P; single strand
# T2 sequence (P09874 other isoform, or with tags, fused parts or gaps del518-654 | mutant): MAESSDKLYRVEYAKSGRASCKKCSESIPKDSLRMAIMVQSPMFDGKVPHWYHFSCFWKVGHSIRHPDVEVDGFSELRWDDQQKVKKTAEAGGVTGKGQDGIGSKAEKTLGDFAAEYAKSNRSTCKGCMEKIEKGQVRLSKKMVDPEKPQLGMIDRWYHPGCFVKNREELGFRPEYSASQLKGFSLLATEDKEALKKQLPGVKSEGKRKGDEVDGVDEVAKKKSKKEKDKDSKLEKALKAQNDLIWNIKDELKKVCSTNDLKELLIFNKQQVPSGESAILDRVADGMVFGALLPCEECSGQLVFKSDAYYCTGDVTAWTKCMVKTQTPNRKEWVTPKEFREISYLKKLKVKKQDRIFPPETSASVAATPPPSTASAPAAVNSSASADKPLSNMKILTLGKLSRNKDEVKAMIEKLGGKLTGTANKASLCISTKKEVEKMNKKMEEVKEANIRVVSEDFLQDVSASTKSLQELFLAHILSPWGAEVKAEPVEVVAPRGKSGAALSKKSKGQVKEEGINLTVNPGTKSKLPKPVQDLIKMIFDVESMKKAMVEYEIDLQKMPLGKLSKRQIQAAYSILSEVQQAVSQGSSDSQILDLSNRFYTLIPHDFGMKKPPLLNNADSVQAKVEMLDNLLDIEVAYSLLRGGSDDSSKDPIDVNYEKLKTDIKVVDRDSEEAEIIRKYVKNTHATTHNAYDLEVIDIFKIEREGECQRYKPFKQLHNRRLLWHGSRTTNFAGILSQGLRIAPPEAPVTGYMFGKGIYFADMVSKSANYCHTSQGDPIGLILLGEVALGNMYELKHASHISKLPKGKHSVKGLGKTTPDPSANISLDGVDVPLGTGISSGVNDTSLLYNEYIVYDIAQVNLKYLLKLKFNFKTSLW
# PARP1-ΔZn3 [3] = biological target: T3, PARP1-ΔZn3 (human, UniProt P09874 1-1014, del232-374); test: EMSA; lowest affinity, within 2-3 fold of FL; Table 2 value not in material; 25 mM Tris pH 7.5, 75 mM NaCl, 50 mM arginine, 0.1 mM TCEP, 0.1 ug/ul BSA, room temperature 30 min; 0.05 uM probe, 0-2.5 uM protein; native 10% PAGE in TBE; conditions: protein: recombinant; tags: His; chain copies: 2; label: 5'-32P; single strand
# T3 sequence (P09874 other isoform, or with tags, fused parts or gaps del232-374 | mutant): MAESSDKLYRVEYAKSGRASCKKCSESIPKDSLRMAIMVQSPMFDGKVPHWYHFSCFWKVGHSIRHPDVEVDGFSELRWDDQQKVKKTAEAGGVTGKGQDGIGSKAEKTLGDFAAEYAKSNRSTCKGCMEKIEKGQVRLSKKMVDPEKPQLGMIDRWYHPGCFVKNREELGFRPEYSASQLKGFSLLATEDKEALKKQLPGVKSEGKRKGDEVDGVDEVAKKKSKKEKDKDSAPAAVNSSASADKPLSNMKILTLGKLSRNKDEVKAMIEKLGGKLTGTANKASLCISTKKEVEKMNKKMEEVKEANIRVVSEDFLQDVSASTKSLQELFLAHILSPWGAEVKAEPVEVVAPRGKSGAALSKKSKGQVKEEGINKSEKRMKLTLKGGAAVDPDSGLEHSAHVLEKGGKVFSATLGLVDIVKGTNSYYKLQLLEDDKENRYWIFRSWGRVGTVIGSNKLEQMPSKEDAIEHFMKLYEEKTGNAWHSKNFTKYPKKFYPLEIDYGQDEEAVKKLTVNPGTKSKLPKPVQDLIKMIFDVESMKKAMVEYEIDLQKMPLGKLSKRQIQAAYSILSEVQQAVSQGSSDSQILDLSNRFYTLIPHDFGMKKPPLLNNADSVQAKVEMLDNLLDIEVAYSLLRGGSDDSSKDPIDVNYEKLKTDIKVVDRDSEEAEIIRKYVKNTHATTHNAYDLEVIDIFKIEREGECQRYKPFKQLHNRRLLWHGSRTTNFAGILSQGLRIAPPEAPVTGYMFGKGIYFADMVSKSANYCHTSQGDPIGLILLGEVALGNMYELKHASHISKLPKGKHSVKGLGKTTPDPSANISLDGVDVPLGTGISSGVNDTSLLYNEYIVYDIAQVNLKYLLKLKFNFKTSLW
# PARP1-ΔWGR [4] = biological target: T2, PARP1-ΔWGR; test: competition EMSA; vs N1 in same reaction; 25 mM Tris pH 7.5, 75 mM NaCl, 50 mM arginine, 0.1 mM TCEP, 0.1 ug/ul BSA, room temperature 30 min; 0.05 uM probe, 0-2.5 uM protein; native 10% PAGE in TBE; conditions: protein: recombinant; tags: His; label: 32P; single strand
# PARP1-ΔBRCT [5] = biological target: T1, PARP1-ΔBRCT; test: as above; conditions: protein: recombinant; tags: His; label: 32P; single strand
# PARP1-ΔZn3 [6] = biological target: T3, PARP1-ΔZn3; test: as above; conditions: protein: recombinant; tags: His; label: 32P; single strand
# PARP1-ΔZn3 [7] = biological target: T3, PARP1-ΔZn3; test: EMSA; monomer-equivalent K, n=2.17±0.12; 25 mM Tris pH 7.5, 75 mM NaCl, 50 mM arginine, 0.1 mM TCEP, 0.1 ug/ul BSA, room temperature 30 min; 0.05 uM probe, 0-2.5 uM protein; native 10% PAGE in TBE; conditions: protein: recombinant; tags: His; chain copies: 2; label: 32P; single strand
# PARP1-ΔWGR [8] = biological target: T2, PARP1-ΔWGR; test: EMSA; monomer-equivalent K, n=2.13±0.07; 25 mM Tris pH 7.5, 75 mM NaCl, 50 mM arginine, 0.1 mM TCEP, 0.1 ug/ul BSA, room temperature 30 min; 0.05 uM probe, 0-2.5 uM protein; native 10% PAGE in TBE; conditions: protein: recombinant; tags: His; chain copies: 2; label: 32P; single strand
# PARP1-ΔBRCT [9] = biological target: T1, PARP1-ΔBRCT; test: EMSA; monomer-equivalent K, n=1.94±0.11; 25 mM Tris pH 7.5, 75 mM NaCl, 50 mM arginine, 0.1 mM TCEP, 0.1 ug/ul BSA, room temperature 30 min; 0.05 uM probe, 0-2.5 uM protein; native 10% PAGE in TBE; conditions: protein: recombinant; tags: His; chain copies: 2; label: 32P; single strand
# PARP1-ΔZn3 [10] = biological target: T3, PARP1-ΔZn3; test: EMSA; monomer-equivalent K, n=1.41±0.08; 25 mM Tris pH 7.5, 75 mM NaCl, 50 mM arginine, 0.1 mM TCEP, 0.1 ug/ul BSA, room temperature 30 min; 0.05 uM probe, 0-2.5 uM protein; native 10% PAGE in TBE; conditions: protein: recombinant; tags: His; chain copies: 2; label: 32P; single strand
# PARP1-ΔBRCT [11] = biological target: T1, PARP1-ΔBRCT; test: EMSA; monomer-equivalent K, n=2.23±0.10; 25 mM Tris pH 7.5, 75 mM NaCl, 50 mM arginine, 0.1 mM TCEP, 0.1 ug/ul BSA, room temperature 30 min; 0.05 uM probe, 0-2.5 uM protein; native 10% PAGE in TBE; conditions: protein: recombinant; tags: His; chain copies: 2; label: 32P; single strand
# PARP1-ΔWGR [12] = biological target: T2, PARP1-ΔWGR; test: EMSA; monomer-equivalent K, n=1.04±0.11; 25 mM Tris pH 7.5, 75 mM NaCl, 50 mM arginine, 0.1 mM TCEP, 0.1 ug/ul BSA, room temperature 30 min; 0.05 uM probe, 0-2.5 uM protein; native 10% PAGE in TBE; conditions: protein: recombinant; tags: His; chain copies: 2; label: 32P; single strand
binder,measurement,setting,value
UAGGCACCGGCAUCUUGAC (ssRNA) [19-mer ssRNA],binding result,PARP1-ΔBRCT [1],binds
same,binding result,PARP1-ΔWGR [2],binds
same,binding result,PARP1-ΔZn3 [3],binds
TAGGCACCGGCATCTTGAC (ssDNA) [19-mer ssDNA],binding signal,PARP1-ΔWGR [4],26.5 ± 2.4 KDNA/KRNA
same,binding signal,PARP1-ΔBRCT [5],42.3 ± 1.2 KDNA/KRNA
same,binding signal,PARP1-ΔZn3 [6],23.1 ± 5.2 KDNA/KRNA
CCGUACGCGGGUUUAAACGA (ssRNA) [20-mer ssRNA],Ka,PARP1-ΔZn3 [7],1.3e+06 M⁻¹
same,Ka,PARP1-ΔWGR [8],1.46e+06 M⁻¹
same,Ka,PARP1-ΔBRCT [9],1.19e+06 M⁻¹
CGUACGCGGAAUAGUUUAAACUGU (ssRNA) [24-mer ssRNA],Ka,PARP1-ΔZn3 [10],1.86e+06 M⁻¹
same,Ka,PARP1-ΔBRCT [11],2.38e+06 M⁻¹
same,Ka,PARP1-ΔWGR [12],3.4e+06 M⁻¹
